Reference: the nanobody polyreactivity screen of Harvey et al. (2022)

Experiment: yeast display, Sf9 membrane polyspecificity reagent, FACS + sequencing; frameworks hold sequencing errors
Procedure, shortened: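 In a synthetic yeast display library (Saccharomyces cerevisiae BJ5465), nanobody expression was induced with galactose for 36–48 hours. FACS gates were set low and high (top ~1%) using anti-HA fluorescence for expression and streptavidin fluorescence for binding of the Sf9 membrane reagent. Each polyreactivity label is drawn from the gate of origin.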

Sequence | polyreactivity (PSR sort gate)
QVQLVESGGGLVQAGGSLRLSCAAYGSTFGGNARGWYIQAPGKERELVAVISKRGGSTYYADSVKGRFTISRDYEKNTVYLQINSLKPEDTAVYYCAATYSRYWSPTYDYWGQGTQVTVSS | high polyreactivity
QVQLVESGGGLVQAGGSLRLSCAAYGSTFKSYAMGWYSQAPGKDRELVAAITHRGSTYYADSVKGRFTISRDNAKNTVYLQMNSLKPEDTAVYYCNVRRIGNGRRVDYWGQGTQVTVSS | high polyreactivity
QVQLVESGGGLVQAGGSLRLSCAAYGSTFTRYTMGWYRQAPGKDRELVASSTRTGSTNYADSVKGRFTISRDNAKNTVYLQMYSLKPEDTAVYYCAGGRYYSYRFSFGYWGQGTQVTVSS | high polyreactivity
QVQLVESGGGLVQAGGSLRLSCAAYGYIFDHYAMGWYRQAPGKERELVAAINWSGGRTYYADSVKGRFTISRDNAKNTVYLQMNSLKPEDTAVYYCAAGGVSENDYWGQGTQVTVSS | high polyreactivity
QVQLVESGGGLVQAGGSLRLSCAAYSYVMGWNRQAPGKERELVAAISQSGGSTYYADSVKGRFTISRDNPKNTVYLQMNSLKPEDTAVYYCAARREPYQYNQYYSWGQGTKVTVSS | high polyreactivity
QVQLVESGGGLVQAGGSLRLSCAAYVRIIYDYAKGWYRQAPGKERELVAAISKGGGSTYYADSVKGRFTISRDNAKNTVYLQMNSLNPEDTAVYYCAASTSHTTDTRYDYLGQGTQVTVSS | low polyreactivity
QVQLVESGGGLVQAGGSLRLSCAAYYAMGWYRHAPGKERELVAAIDDGTSTNYADSVKGRFTISRDNAKNTVYLQMNSLKPEDTAVYYCNKLSEVTYYGSKFDYWGQGTQVTVSS | low polyreactivity
QVQLVESGGGLVQAGGSLRLSCADCGSIFSSNAKGWYRQEPGKERELVAAISRSACSTYYADSVKGRFTISRDIAKNTVYLQMNSLKQEDTAVYYCNGVTRLGTYDYWGQGSQVTVSS | high polyreactivity
QVQLVESGGGLVQAGGSLRLSCADSARILYHYAIGWYRQAHGKETELVAAITRGGGTNYADSVKGRFTISRDNAKNTVYLQMNSLKPEDTAVYYCNADRFIVTRSRRGDYWGQGTQVTVSS | low polyreactivity
QVQLVESGGGLVQAGGSLRLSCADSGFILSPNTMGWYRQAPGKERELVAAMSSDVSTYADSVTGRFTISRDNAKNTVYLQMNSLKPEDTAVYYCNADDFGYASYEYWGQGTQVTVSS | low polyreactivity
QVQLVESGGGLVQAGGSLRLSCADSGFILTYYAMGWYRQAPGKERELVAAISWSGGSTYYADSVKGRFTISRDNAKNTVYLQMNSLKPEDTAVYYCAAEKRYSSYDYWGQGTQVTVSS | high polyreactivity
QVQLVESGGGLVQAGGSLRLSCADSGFTFAANTMGWYRQAPGKARELVADISGRGDRTSYADSVKGRFTISRDNAKNTVYLQMNSLKPEDTAVYYCAVDIYYYSNVHYYYWGQGTQVTVSS | low polyreactivity
QVQLVESGGGLVQAGGSLRLSCADSGFTFSWYAMGWYRQAPGKERELVAAISLRGGSTYYADSVKGRFTISRENAKNTVYFQMNSLKPEDTAVYYCAADSFRWRYKNFYYWGQGTQVTLSS | high polyreactivity
QVQLVESGGGLVQAGGSLRLSCADSGFTFTLYAMGWYRQAPGKERELVAAISGIGGSTYYSDSVKGRFTISSDNAKNTVYLQMNSLKPEDTAVYYCNAVSGDSGDYWGQGTQVNVSS | low polyreactivity
QVQLVESGGGLVQAGGSLRLSCADSGFTFWRYAMGWYRQAPGKERELVAAISWRGSSTYYADSVKGRFTISRDIAKNTVYLQMNSLKPEDTAVYYCARYQSTYDSTYNYWGQGTQVTVSS | high polyreactivity
QVQLVESGGGLVQAGGSLRLSCADSGFTFYVYTMGWYRQAPAKERELVAAITWSGGSTYYADSVKGRFTISRDNAKNTVYLQMNSLKPEDTAVYYCNRVGYWVGHDSWGQGTQVTVSS | high polyreactivity
QVQLVESGGGLVQAGGSLRLSCADSGIIFTRYAMGWYRQAPGKERELVAVITQSGGRTYYADSVKGRFTISRDNAKNTVYLQLNSLKPEDTAVYYCAAAYKPSYFTRAGDYWGQGTQVTVSS | high polyreactivity
